The text below walks through data of US20150203577A1 (Chugai, published 2015).

In experiment [1] the target is T1, mouse FcγRII (mouse, UniProt P08101 30-210).
T1 construct: also called mFcγRII; mFcgRII
T1 sequence: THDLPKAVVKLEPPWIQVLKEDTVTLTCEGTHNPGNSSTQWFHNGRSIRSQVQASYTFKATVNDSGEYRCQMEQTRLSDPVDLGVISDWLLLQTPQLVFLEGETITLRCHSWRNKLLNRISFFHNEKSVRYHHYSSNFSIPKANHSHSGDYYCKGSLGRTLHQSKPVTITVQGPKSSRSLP
As to the kind of experiment: SPR Biacore T200, KD ratio. The protocol: (§1) The antibody L chain commonly used was the L chain MRAL-k0 (SEQ ID NO: 2) of the anti-IL-6 receptor antibody tocilizumab. The antibody H chain constant region used was each of the aforementioned 8 Fc variants prepared by altering human IgG1 hIgG1 (SEQ ID NO: 3) as a template.
(§2) Each altered antibody was analyzed for its interaction with each Fcγ receptor prepared above using Biacore T100 (GE Healthcare Japan Corp.), Biacore T200 (GE Healthcare Japan Corp.), Biacore A100, or Biacore 4000. The running buffer used was HBS-EP+ (GE Healthcare Japan Corp.). The assay temperature was set to 25° C. The sensor chips used were chips prepared by immobilizing Protein L (ACTIGEN or BioVision) onto Series S Sensor Chip CM5 (GE Healthcare Japan Corp.) or Series S Sensor Chip CM4 (GE Healthcare Japan Corp.) by the amine coupling method.
(§3) In order to calculate the KD value of each altered antibody for FcγR, kinetic analysis was conducted according to the following method: first, the antibody of interest was captured onto any of these chips and allowed to interact with mFcγR diluted with a running buffer. For the obtained sensorgram, the assay results were globally fit into the 1:1 Langmuir binding model using Biacore Evaluation Software to calculate an association rate constant ka (L/mol/s) and a dissociation rate constant kd (1/s). From these values, the dissociation constant KD (mol/L) was calculated.
In general terms: SPR reads the build-up and loss of mass on a sensor chip optically.

For experiment [2], the target named is T2, mouse FcγRIII (mouse, UniProt P08508 31-215).
T2 construct: also called mFcγRIII; mFcgRIII
T2 chain: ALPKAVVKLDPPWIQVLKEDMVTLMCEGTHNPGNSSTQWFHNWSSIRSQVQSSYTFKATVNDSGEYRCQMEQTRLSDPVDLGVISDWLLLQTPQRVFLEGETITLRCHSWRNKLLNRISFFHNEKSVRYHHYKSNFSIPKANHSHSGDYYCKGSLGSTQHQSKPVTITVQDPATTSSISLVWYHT
The experiment is described as follows: SPR Biacore T200, KD ratio. The protocol: as §1, §2, §3

B1: F616 (antibody, human IgG1, kappa)
heavy: QVQLQESGPGLVKPSETLSLTCAVSGHSISHDHAWSWVRQPPGEGLEWIGFISYSGITNYNPSLQGRVTISRDNSKNTLYLQMNSLRAEDTAVYYCARSLARTTAMDYWGEGTLVTVSSASTKGPSVFPLAPSSKSTSGGTAALGCLVKDYFPEPVTVSWNSGALTSGVHTFPAVLQSSGLYSLSSVVTVPSSSLGTQTYICNVNHKPSNTKVDKKVEPKSCDKTHTCPPCPAPELLGGPDVFLFPPKPKDTLMISRTPEVTCVVVDVSHEDPEVKFNWYVDGVEVHNAKTKPREEQYNSTYRVVSVLTVLHQDWLNGKEYKCKVSNDAYPAPIEKTISKAKGQPREPQVYTLPPSRDELTKNQVSLTCLVKGFYPSDIAVEWESNGQPENNYKTTPPVLDSDGSFFLYSKLTVDKSRWQQGNVFSCSVMHEALHNHYTQKSLSLSPGK
light: not shown
notes: human IgG1 constant region variant; copies: 2 + 2
Consider B1, for which the “relative mFcγRII-binding activity (mIgG1 = 1)” value in experiment [1] was found to be 186 fold. Further, the “relative mFcγRIII-binding activity (mIgG1 = 1)” value in experiment [2] is 50.1 fold.

B2: FS131 (antibody, human IgG1, kappa)
heavy: QVQLQESGPGLVKPSETLSLTCAVSGHSISHDHAWSWVRQPPGEGLEWIGFISYSGITNYNPSLQGRVTISRDNSKNTLYLQMNSLRAEDTAVYYCARSLARTTAMDYWGEGTLVTVSSASTKGPSVFPLAPSSKSTSGGTAALGCLVKDYFPEPVTVSWNSGALTSGVHTFPAVLQSSGLYSLSSVVTVPSSSLGTQTYICNVNHKPSNTKVDKKVEPKSCDKTHTCPPCPAPEWLGGPDVFLFPPKPKDTLMISRTPEVTCVVVDVSHEDPEVKFNWYVDGVEVHNAKTKPREEQYNSTYRVVSVLTVLHQDWLNGKEYKCKVSNKAYPAPIEKTISKAKGQPREPQVYTLPPSRDELTKNQVSLTCLVKGFYPSDIAVEWESNGQPENNYKTTPPVLDSDGSFFLYSKLTVDKSRWQQGNVFSCSVMHEALHNHYTQKSLSLSPGK
light: not shown
notes: as for B1
Take B2: in experiment [1], the “relative mFcγRII-binding activity (mIgG1 = 1)” value was 144 fold. Also, the “relative mFcγRIII-binding activity (mIgG1 = 1)” value in experiment [2] is 33.2 fold.

B3: FS133 (antibody, human IgG1, kappa)
heavy: QVQLQESGPGLVKPSETLSLTCAVSGHSISHDHAWSWVRQPPGEGLEWIGFISYSGITNYNPSLQGRVTISRDNSKNTLYLQMNSLRAEDTAVYYCARSLARTTAMDYWGEGTLVTVSSASTKGPSVFPLAPSSKSTSGGTAALGCLVKDYFPEPVTVSWNSGALTSGVHTFPAVLQSSGLYSLSSVVTVPSSSLGTQTYICNVNHKPSNTKVDKKVEPKSCDKTHTCPPCPAPELLGGPDVFLFPPKPKDTLMISRTPEVTCVVVDVSDEDPEVKFNWYVDGVEVHNAKTKPREEQYNSTYRVVSVLTVLHQDWLNGKEYKCKVSNKAWPAPIEKTISKAKGQPREPQVYTLPPSRDELTKNQVSLTCLVKGFYPSDIAVEWESNGQPENNYKTTPPVLDSDGSFFLYSKLTVDKSRWQQGNVFSCSVMHEALHNHYTQKSLSLSPGK
light: not shown
notes: as for B1
With B3, the “relative mFcγRII-binding activity (mIgG1 = 1)” value in experiment [1] was 162 fold. Further, the “relative mFcγRIII-binding activity (mIgG1 = 1)” value in experiment [2] is 86.5 fold.

B4: FS132 (antibody, human IgG1, kappa)
heavy: QVQLQESGPGLVKPSETLSLTCAVSGHSISHDHAWSWVRQPPGEGLEWIGFISYSGITNYNPSLQGRVTISRDNSKNTLYLQMNSLRAEDTAVYYCARSLARTTAMDYWGEGTLVTVSSASTKGPSVFPLAPSSKSTSGGTAALGCLVKDYFPEPVTVSWNSGALTSGVHTFPAVLQSSGLYSLSSVVTVPSSSLGTQTYICNVNHKPSNTKVDKKVEPKSCDKTHTCPPCPAPELLGGPDVFLFPPKPKDTLMISRTPEVTCVVVDVSHEDPEVKFNWYVDGVEVHNAKTKPREEQYNSTYRVVSVLTVLHQDWLNGKEYKCKVSNKDYPAPIEKTISKAKGQPREPQVYTLPPSRDELTKNQVSLTCLVKGFYPSDIAVEWESNGQPENNYKTTPPVLDSDGSFFLYSKLTVDKSRWQQGNVFSCSVMHEALHNHYTQKSLSLSPGK
light: not shown
notes: as for B1
Regarding B4, the “relative mFcγRII-binding activity (mIgG1 = 1)” value in experiment [1] turned out to be 96.7 fold. Also, the “relative mFcγRIII-binding activity (mIgG1 = 1)” value in experiment [2] was determined as 41.8 fold.
